In patent publication US20090280138A1 (OXFORD BIOMEDICA UK, published 2009):

B1: 5T4 9 mer peptide 114 RDVLAQLPS (peptide)
peptide: RDVLAQLPS
B2: 5T4 9 mer peptide 95 ERQNRSFEG (peptide)
peptide: ERQNRSFEG
notes: also called Peptide No 95
B3: 5T4 9 mer peptide 72 SLRQLDLSH (peptide)
peptide: SLRQLDLSH
notes: also called Peptide No 72
B4: 5T4 9 mer peptide 94 EDERQNRSF (peptide)
peptide: EDERQNRSF
notes: also called Peptide No 94
B5: 5T4 9 mer peptide 16 SSSPTSSAS (peptide)
peptide: SSSPTSSAS
notes: also called Peptide No 16
B6: 5T4 9 mer peptide 101 AALLAGRAL (peptide)
peptide: AALLAGRAL
B7: 5T4 9 mer peptide 120 LDLSNNSLV (peptide)
peptide: LDLSNNSLV
notes: also called Peptide No 120
B8: 5T4 9 mer peptide 91 NHIVPPEDE (peptide)
peptide: NHIVPPEDE
notes: also called Peptide No 91
B9: 5T4 9 mer peptide 17 SPTSSASSF (peptide)
peptide: SPTSSASSF
notes: also called Peptide No 17
B10: 5T4 9 mer peptide 81 AFSGSNASV (peptide)
peptide: AFSGSNASV
notes: also called Peptide No 81
B11: 5T4 9 mer peptide 22 SSAPFLASA (peptide)
peptide: SSAPFLASA
notes: also called Peptide No 22
B12: 5T4 9 mer peptide 85 VSAPSPLVE (peptide)
peptide: VSAPSPLVE
notes: also called Peptide No 85
B13: 5T4 9 mer peptide 77 PLADLSPFA (peptide)
peptide: PLADLSPFA
notes: also called Peptide No 77
B14: 5T4 9 mer peptide 103 AGRALQGLR (peptide)
peptide: AGRALQGLR
notes: also called Peptide No 103
B15: 5T4 9 mer peptide 109 LASNHFLYL (peptide)
peptide: LASNHFLYL
B16: 5T4 9 mer peptide 100 VVAALLAGR (peptide)
peptide: VVAALLAGR
notes: also called Peptide No 100
B17: 5T4 9 mer peptide 113 LPRDVLAQL (peptide)
peptide: LPRDVLAQL
B18: 5T4 9 mer peptide 76 HNPLADLSP (peptide)
peptide: HNPLADLSP
notes: also called Peptide No 76
B19: 5T4 9 mer peptide 15 VSSSSPTSS (peptide)
peptide: VSSSSPTSS
notes: also called Peptide No 15
B20: 5T4 9 mer peptide 107 RRLELASNH (peptide)
peptide: RRLELASNH
B21: 5T4 9 mer peptide 99 GMVVAALLA (peptide)
peptide: GMVVAALLA
notes: also called Peptide No 99
B22: 5T4 9 mer peptide 90 ILNHIVPPE (peptide)
peptide: ILNHIVPPE
notes: also called Peptide No 90
B23: 5T4 9 mer peptide 92 IVPPEDERQ (peptide)
peptide: IVPPEDERQ
notes: also called Peptide No 92
B24: 5T4 9 mer peptide 82 SGSNASVSA (peptide)
peptide: SGSNASVSA
notes: also called Peptide No 82
B25: 5T4 9 mer peptide 80 PFAFSGSNA (peptide)
peptide: PFAFSGSNA
notes: also called Peptide No 80
B26: 5T4 9 mer peptide 73 RQLDLSHNP (peptide)
peptide: RQLDLSHNP
notes: also called Peptide No 73
B27: 5T4 9 mer peptide 93 PPEDERQNR (peptide)
peptide: PPEDERQNR
notes: also called Peptide No 93
B28: 5T4 9-mer peptide 130 (HLESLHLED) (peptide)
peptide: HLESLHLED
B29: 5T4 9-mer peptide 125 (LTYVSFRNL) (peptide)
peptide: LTYVSFRNL
B30: 5T4 9-mer peptide 132 (LHLEDNALK) (peptide)
peptide: LHLEDNALK
B31: 5T4 9-mer peptide 131 (ESLHLEDNA) (peptide)
peptide: ESLHLEDNA
B32: 5T4 9-mer peptide 122 (NNSLVSLTY) (peptide)
peptide: NNSLVSLTY
B33: 5T4 9-mer peptide 127 (SFRNLTHLE) (peptide)
peptide: SFRNLTHLE

Molecular target: T1, MHC class I allele A*0101 (bound via biotin to streptavidin-coated plate)
T1 construct: iTopia MHC class I monomer on the plate; placeholder peptide and b2M removed, then reconstituted with test peptide and fresh b2M; also called A1; HLA A1
Test: iTopia peptide binding assay
Protocol: (§1) The 9 mers were tested for Peptide Binding, Off Rate and Affinity using iTopia Epitope Discovery System in accordance with the manufacturer's instructions. Briefly, 96 well microtitre plates coated with MHC molecules representing different MHC alleles are used to identify candidate peptides. […] Determinations are performed in duplicate using an ELISA plate reader and included allele specific positive controls.
(§2) i) Peptide Binding—This assay measures the ability of individual peptides to bind to the MHC molecules under standardized optimal binding conditions. The assay is performed for all the test peptides across the selected MHC alleles. The test peptides identified as “binders” are characterized further in terms of affinity and dissociation experiments.

Going from B1 to B2, the “% of positive control peptide binding” value falls from 1% to 0%.

B3 and B4 are the same in “% of positive control peptide binding” value: 0% for the first, 0% for the second.

Going from B5 to B6, the “% of positive control peptide binding” value falls from 4% to 1%.

First: B7
Second: B8
The “% of positive control peptide binding” value of the first is higher: 7% for the first, 6% for the second.

B9 and B10 are the same in “% of positive control peptide binding” value: 2% for the first, 2% for the second.

Going from B11 to B12, the “% of positive control peptide binding” value falls from 6% to 3%.

Going from B13 to B14, the “% of positive control peptide binding” value falls from 1% to 0%.

Compared with B15, B16 is lower in “% of positive control peptide binding” value: 26% for the first, 9% for the second.

Going from B17 to B18, the “% of positive control peptide binding” value rises from 3% to 5%.

First: B19
Second: B20
The “% of positive control peptide binding” value of the first is higher: 3% for the first, 0% for the second.

First: B21
Second: B22
The “% of positive control peptide binding” value of the first is lower: 0% for the first, 5% for the second.

First: B23
Second: B24
The “% of positive control peptide binding” value of the first is higher: 6% for the first, 5% for the second.

First: B25
Second: B26
The “% of positive control peptide binding” value of the first is lower: 0% for the first, 2% for the second.

With B27 the “% of positive control peptide binding” value was 0%.

Molecular target: T2, MHC class I allele A*0201 (bound via biotin to streptavidin-coated plate)
T2 construct: iTopia MHC class I monomer on the plate; placeholder peptide and b2M removed, then reconstituted with test peptide and fresh b2M; also called A2; HLA A2
Test: iTopia peptide binding assay
Protocol: as §1, §2

First: B1
Second: B2
The “% of positive control peptide binding” value of the first is higher: 15% for the first, 1% for the second.

First: B3
Second: B4
The “% of positive control peptide binding” value of the first is higher: 6% for the first, 2% for the second.

Going from B5 to B6, the “% of positive control peptide binding” value rises from 7% to 38%.

First: B7
Second: B8
The “% of positive control peptide binding” value of the first is higher: 42% for the first, 11% for the second.

Compared with B9, B10 is higher in “% of positive control peptide binding” value: 4% for the first, 55% for the second.

Going from B11 to B12, the “% of positive control peptide binding” value falls from 85% to 13%.

Compared with B13, B14 is lower in “% of positive control peptide binding” value: 67% for the first, 2% for the second.

Compared with B15, B16 is lower in “% of positive control peptide binding” value: 78% for the first, 11% for the second.

First: B17
Second: B18
The “% of positive control peptide binding” value of the first is higher: 10% for the first, 7% for the second.

Going from B19 to B20, the “% of positive control peptide binding” value falls from 9% to 5%.

First: B21
Second: B22
The “% of positive control peptide binding” value of the first is higher: 71% for the first, 63% for the second.

Going from B23 to B24, the “% of positive control peptide binding” value rises from 12% to 15%.

Going from B25 to B26, the “% of positive control peptide binding” value falls from 13% to 8%.

With B27 the “% of positive control peptide binding” value was 2%.

Molecular target: T3, MHC class I allele A*0301 (bound via biotin to streptavidin-coated plate)
T3 construct: iTopia MHC class I monomer on the plate; placeholder peptide and b2M removed, then reconstituted with test peptide and fresh b2M; also called A3; HLA A3
Test: iTopia peptide binding assay
Protocol: as §1, §2

Compared with B1, B2 is lower in “% of positive control peptide binding” value: 3% for the first, 1% for the second.

First: B3
Second: B4
The “% of positive control peptide binding” value of the first is higher: 11% for the first, 4% for the second.

Compared with B5, B6 is lower in “% of positive control peptide binding” value: 2% for the first, 0% for the second.

B7 and B8 are the same in “% of positive control peptide binding” value: 3% for the first, 3% for the second.

Compared with B9, B10 is higher in “% of positive control peptide binding” value: 0% for the first, 2% for the second.

First: B11
Second: B12
The “% of positive control peptide binding” value of the first is lower: 1% for the first, 7% for the second.

Compared with B13, B14 is higher in “% of positive control peptide binding” value: 0% for the first, 2% for the second.

Compared with B15, B16 is higher in “% of positive control peptide binding” value: 18% for the first, 49% for the second.

B17 and B18 are the same in “% of positive control peptide binding” value: 3% for the first, 3% for the second.

Going from B19 to B20, the “% of positive control peptide binding” value rises from 2% to 3%.

Going from B21 to B22, the “% of positive control peptide binding” value rises from 0% to 4%.

B23 and B24 are the same in “% of positive control peptide binding” value: 3% for the first, 3% for the second.

Compared with B25, B26 is lower in “% of positive control peptide binding” value: 3% for the first, 2% for the second.

In the case of B27, the “% of positive control peptide binding” value is reported as 0%.

Molecular target: T4, MHC class I allele B*0702 (bound via biotin to streptavidin-coated plate)
T4 construct: iTopia MHC class I monomer on the plate; placeholder peptide and b2M removed, then reconstituted with test peptide and fresh b2M; also called B7; HLA B7
Test: iTopia peptide binding assay
Protocol: as §1, §2

Going from B1 to B2, the “% of positive control peptide binding” value falls from 4% to 1%.

Compared with B3, B4 is lower in “% of positive control peptide binding” value: 13% for the first, 4% for the second.

Going from B5 to B6, the “% of positive control peptide binding” value rises from 8% to 59%.

First: B7
Second: B8
The “% of positive control peptide binding” value of the first is lower: 3% for the first, 5% for the second.

Going from B9 to B10, the “% of positive control peptide binding” value falls from 62% to 14%.

First: B11
Second: B12
The “% of positive control peptide binding” value of the first is higher: 7% for the first, 3% for the second.

First: B13
Second: B14
The “% of positive control peptide binding” value of the first is higher: 10% for the first, 1% for the second.

Compared with B15, B16 is lower in “% of positive control peptide binding” value: 49% for the first, 7% for the second.

Compared with B17, B18 is lower in “% of positive control peptide binding” value: 79% for the first, 5% for the second.

Compared with B19, B20 is higher in “% of positive control peptide binding” value: 2% for the first, 3% for the second.

Compared with B21, B22 is higher in “% of positive control peptide binding” value: 0% for the first, 7% for the second.

Going from B23 to B24, the “% of positive control peptide binding” value rises from 3% to 11%.

Compared with B25, B26 is lower in “% of positive control peptide binding” value: 7% for the first, 4% for the second.

For B27, the “% of positive control peptide binding” value was 0%.

Molecular target: T5, MHC class I molecule A*0101 (biotin (bound to streptavidin-coated plate))
T5 construct: iTopia monomer stripped of placeholder peptide and b2M, then reconstituted with test peptide and fresh b2M; also called A1; HLA-A1
Test: iTopia peptide binding assay
Protocol: as §1, §2

First: B28
Second: B29
The “binding, % of positive control peptide” value of the first is lower: 4 % of positive control for the first, 28 % of positive control for the second.

Compared with B30, B31 is lower in “binding, % of positive control peptide” value: 4 % of positive control for the first, 2 % of positive control for the second.

Going from B32 to B33, the “binding, % of positive control peptide” value falls from 8 % of positive control to 1 % of positive control.

Molecular target: T6, MHC class I molecule A*0201 (biotin (bound to streptavidin-coated plate))
T6 construct: iTopia monomer stripped of placeholder peptide and b2M, then reconstituted with test peptide and fresh b2M; also called A2; HLA-A2
Test: iTopia peptide binding assay
Protocol: as §1, §2

Going from B28 to B29, the “binding, % of positive control peptide” value rises from 3 % of positive control to 25 % of positive control.

Going from B30 to B31, the “binding, % of positive control peptide” value rises from 4 % of positive control to 8 % of positive control.

Going from B32 to B33, the “binding, % of positive control peptide” value falls from 12 % of positive control to 1 % of positive control.

Molecular target: T7, MHC class I molecule A*0301 (biotin (bound to streptavidin-coated plate))
T7 construct: iTopia monomer stripped of placeholder peptide and b2M, then reconstituted with test peptide and fresh b2M; also called A3; HLA-A3
Test: iTopia peptide binding assay
Protocol: as §1, §2

Compared with B28, B29 is higher in “binding, % of positive control peptide” value: 2 % of positive control for the first, 20 % of positive control for the second.

Compared with B30, B31 is lower in “binding, % of positive control peptide” value: 5 % of positive control for the first, 0 % of positive control for the second.

Compared with B32, B33 is lower in “binding, % of positive control peptide” value: 4 % of positive control for the first, 1 % of positive control for the second.

Molecular target: T8, MHC class I molecule B*0702 (biotin (bound to streptavidin-coated plate))
T8 construct: iTopia monomer stripped of placeholder peptide and b2M, then reconstituted with test peptide and fresh b2M; also called B7; HLA-B7
Test: iTopia peptide binding assay
Protocol: as §1, §2

Going from B28 to B29, the “binding, % of positive control peptide” value rises from 2 % of positive control to 58 % of positive control.

B30 and B31 are the same in “binding, % of positive control peptide” value: 0 % of positive control for the first, 0 % of positive control for the second.

B32 and B33 are the same in “binding, % of positive control peptide” value: 0 % of positive control for the first, 0 % of positive control for the second.
